In publication PMC3365488 (Biochemistry, 2012):

Biological target: T1, CheY complexed with the unlinked CheA P2 domain (E. coli, UniProt P0AE67 1-129; P07363 156-229)
T1 sequence (looked up) 1: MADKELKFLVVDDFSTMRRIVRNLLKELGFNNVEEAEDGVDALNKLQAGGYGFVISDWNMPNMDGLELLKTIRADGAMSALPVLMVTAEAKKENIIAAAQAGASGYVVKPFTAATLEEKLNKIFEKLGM
T1 sequence (looked up) 2: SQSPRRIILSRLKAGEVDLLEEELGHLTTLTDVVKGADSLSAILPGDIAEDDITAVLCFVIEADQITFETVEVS
Assay: NMR titration

Kd: ~4.5 mM
B1: CheA P1 domain (residues 1-134) (domain or fragment, E. coli, UniProt P07363 1-134, looked up)
chain: MSMDISDFYQTFFDEADELLADMEQHLLVLQPEAPDAEQLNAIFRAAHSIKGGAGTFGFSVLQETTHLMENLLDEARRGEMQLNTDIINLFLETKDIMQEQLDAYKQSQEPDAASFDYICQALRQLALEAKGET
